Experimental data taken from publication PMC7603008 (Materials, 2020).

What was measured:
[1] = test system: shallow cavities in beagle dog premolars; experiment: Shallow cavity tooth defect model in beagle dog premolars; format: in vivo
Source text: (§1) For in vivo canine studies, a total of 10 beagle dogs (2 y) were operated on, with all of them reaching end points. For each animal, 4 to 6 maxillary premolars and 6 mandibular premolars were used, depending on their periodontal conditions. Control and experimental groups were allocated to each and every animal so that possible biases resulting from individual nutritional, behavioral, and pulpal conditions could be eliminated. Compared to small animal studies, the sample size was necessarily limited for feasibility and ethical reasons. While the exact numbers for each experiment are included in the figure legends, at least 6 premolars and up to 12 premolars were assigned to every control and experimental group. Investigators performing beagle operation and sampling were not blinded, while investigators involved in histological analysis were blinded. All experiments using animals followed protocols approved by the Institutional Animal Care and Use Committee of Seoul National University (SNU-180416-2-1 and SNU-171020-5-2).
(§2) Beagle dogs of 1–2 years of age were used for three independent experiments. After disinfecting the cervical regions of the maxillary and mandibular premolars with 0.5% chlorhexidine, dish-shaped class V cavities were prepared using a #4 high-speed round bur (head diameter, 1.4 mm). […]

[2] = test system: deep cavities in beagle dog premolars; experiment: Deep cavity tooth defect model in beagle dog premolars; format: in vivo
Source text: as §1, §2

[3] = test system: cavities in beagle dog premolars; experiment: Characterisation of CPNE7-induced hard tissue (SEM, Masson's trichrome, alternative filling materials); format: in vivo
Description: Beagle dogs of 1–2 years of age were used for three independent experiments. After disinfecting the cervical regions of the maxillary and mandibular premolars with 0.5% chlorhexidine, dish-shaped class V cavities were prepared using a #4 high-speed round bur (head diameter, 1.4 mm). For shallow cavities, the drilling stopped when half to two-thirds of the bur head penetrated the tooth structure, depending on the tooth size. For deep cavities, the drilling stopped when the color of the remaining dentin looked reddish gray. The smear layer was removed with a gentle application of 17% EDTA. After sufficient irrigation, surgical sites were dried with a cotton pellet. For CPNE7 function analysis, the cavities were either untreated or treated with a topical application of rCPNE7 (recombinant CPNE7) protein (1 µg total rCPNE7 per tooth in a buffer containing 25 mM Tris-HCl, 100 mM glycine, and 10% glycerol). After a brief incubation for diffusion, the cavities were then filled with either glass ionomer (GI) cement (GC; Fuji II LC; GC America Inc., Alsip, IL, USA), composite resin (Filtek Supreme Ultra Flowable Restorative; 3 M, MN, USA) or intermediate restorative material (IRM; Dentsply Sirona, New York, PA, USA). For peptide function analysis, an HIV-1 Tat-derived cell-penetrating peptide was used as control. In addition to the abovementioned shallow and deep cavity models, complete pulp exposure was performed for peptide analysis. For complete pulp exposure, the drilling stopped when a pin-point exposure of the pulp was generated and bleeding was evident. Cotton pellets soaked in saline were used for bleeding control. Cavities with exposed pulps were divided into two groups for the experiment. Group 1 received only GI cement filling, group 2 received GI cement filling after MTA (ProRoot MTA; Dentsply Sirona, New York, PA, USA) sealing, and group 3 received GI cement filling after MTA mixed with CPNE7-derived peptide (Cpne7-DP) sealing. […]

[4] = test system: dental pulp cells under deep cavities; experiment: TUNEL assay of dental pulp at deep cavity preparation areas; format: in vivo, beagle dog; settings: 3 weeks, versus GI cement only control
Description: Apoptotic cells were detected using the TUNEL kit (Roche Biochemicals, Basel, Switzerland), according to the manufacturer’s instructions. Endogenous peroxidase activity within the tissue sections were blocked in 3% H2O2 prior to enzymatic labeling. To yield a colored reaction product, enzymatically labeled cells were then incubated with 3,3-diaminobenzidine tetrahydrochloride. Visualization was achieved by incubating the sections with diaminobenzidine tetrahydrochloride (DAB), and subsequent counter-staining with hematoxylin. Positive TUNEL signals were converted to red color using IHC Profiler of Image J software (National Institute of Health, Gaithersburg, MD, USA).

[5] = beagle dog premolars, topical application, then cavity filling, H&E histology after 3 weeks
[6] = six weeks instead of three, H&E, n = 6

B1: rCPNE7: recombinant CPNE7 protein, a dental epithelium-derived calcium-dependent phospholipid-binding protein (Origene) (protein, UniProt Q9UBL6 1-633, looked up)
Copine-7: MSAGSERGAAATPGGLPAPCASKVELRLSCRHLLDRDPLTKSDPSVALLQQAQGQWVQVGRTEVVRSSLHPVFSKVFTVDYYFEEVQRLRFEVYDTHGPSGFSCQEDDFLGGMECTLGQPAQKWLLQVVMRVSVDVLGPAGHCAKHFLCCTESSHLARTGPSFLLRYDDLCLPWATAGAVRWWTCRGGHTQGWQIVAQKKVTRPLLLKFGRNAGKSTITVIAEDISGNNGYVELSFRARKLDDKDLFSKSDPFLELYRVNDDQGLQLVYRTEVVKNNLNPVWEAFKVSLSSLCSCEETRPLKCLVWDYDSRGKHDFIGEFSTTFEEMQKAFEEGQAQWDCVNPKYKQKRRSYKNSGVVVLADLKFHRVYSFLDYIMGGCQIHFTVAIDFTASNGDPRNSCSLHYINPYQPNEYLKALVSVGEICQDYDSDKRFSALGFGARIPPKYEVSHDFAINFNPEDDECEGIQGVVEAYQNCLPRVQLYGPTNVAPIISKVARVAAAEESTGKASQYYILLILTDGVVTDMADTREAIVRASRLPMSIIIVGVGNADFTDMQVLDGDDGVLRSPRGEPALRDIVQFVPFRELKNASPAALAKCVLAEVPKQVVEYYSHRGLPPRSLGVPAGEASPGCTP
[1]; [5]
  New hard tissue formation beneath shallow cavity: newly generated tertiary dentin retaining the physiologic tubule structure
[1]; [6]
  Thickness of newly formed tubular dentin, shallow cavity: increased significantly
[2]; [5]
  New hard tissue formation beneath deep cavity: newly generated tertiary dentin was present beneath the remaining dentin
[2]; [6]
  Thickness of newly formed tubular dentin, deep cavity: increased significantly
[3]; Masson's trichrome staining
  Collagen content of newly generated dentin area: higher collagen content
[3]; composite resin or zinc oxide-eugenol (ZOE) filling, H&E after six weeks, n = 6
  Hard tissue formation with alternative cavity filling material: formation of tubular dentin
[3]; scanning electron microscopy, along the entire length of predentin
  Presence of dentinal tubules in the newly mineralized area: clear tubule structure
[4]
  Cell death under the newly generated dentin (TUNEL): significantly reduced cell death
